{
  "source": "patent US6328728A",
  "about": "“Composition and method for enhancing electrotransport agent delivery” (Alza Corporation, priority 1997, dated 2001)",
  "assay": "Hydrophobicity by hydrophobic interaction chromatography (HIC), phenyl Superose column (retention time, ta/tm)",
  "format": "physicochemical",
  "settings": "for HIC Column Retention Time: pH 5.0, 4 mM piperazine-HCl; for HIC Column Retention Time / HIC Retention Time: 32° C.",
  "protocol": "The hydrophobicity of an agent (eg, an agent such as a polypeptide or protein in solution, as well as the relative increase or decrease thereof) is determined by passing the agent-containing solution through a chromatography column filled with a particular \"hydrophobic interaction\" bead material and measuring either (1) the time required for the agent to elute (ie, pass through) the column or (2) the volume of liquid (ie, the same liquid used in the agent-containing sample, but with the agent removed) required to be pumped through the column in order to elute the agent. For the purposes of the present invention, the hydrophobicity of an agent is defined in terms relative to the marker compound, N-acetyl tryptophanamide (sold by Sigma Chemical, St. Louis, Mo.), which has a somewhat moderate hydrophobicity. Hydrophobicity, as that term is used herein, is measured using a 5 mm diameter glass column having a length of 5 cm (ie, column volume of 1.0 mL) and packed with cross-linked agar beads having an average particle size of 13.5 μm. Examples of suitable hydrophobic bead materials include cross-linked agar gel beads (Superose 12) having hydrophobic ligands attached to the agar via chemically stable ether linkages ((Superose 12)--O--CH2 --CHOH--CH2 --O--R) such as alkyl-Superose wherein R is --CH2 --C(CH3)3 and phenyl-Superose wherein R is phenyl, both of which are sold in pre-packaged column form by Pharmacia Biotech, Inc. of Piscataway, N.J. Immediately downstream from the column is placed a flow cell which permits continuous UV absorbance measurements of the solution flowing out of the column. Suitable flow cells and UV absorbance detectors are sold by Perkin-Elmer Corp., Applied Biosystems, Foster City, Calif. Hydrophobicity measurements are conducted at 32° C. with the same buffer that is used in the electrotransport system which is used to deliver the agent (eg, transdermally) to the patient. The buffer strength used in the hydrophobicity measurements is 10 mM ionic strength. The term \"certain hydrophobicity\" as used herein, means that the time required for the agent to elute from the column, relative to the time required for N-acetyl tryptophanamide to elute, is as follows:\nta /tm >0.7, and preferably ta /tm >3\nta is the time at which the peak UV absorbance value is recorded for the beneficial agent in the flow cell, less the time required to initially fill the column with the agent-containing solution (ie, dead volume retention time); and\ntm is the time at which the peak UV absorbance value is recorded for the N-acetyl tryptophanamide marker in the flow cell, less the time required to initially fill the column with the marker-containing solution (ie, dead volume retention time).\nThe above described measurement of agent hydrophobicity is substantially independent of column size and flow rate through the column.\nOne method of measuring the hydrophobicity of an agent such as a polypeptide or protein is by hydrophobic interaction chromatography (HIC). The principles and conditions associated with HIC are fully described in Protein Purification: Principles, High Resolution Methods, and Applications, Janson and Ryden, Eds., pp. 207-226 (1989), the pertinent portions of which are incorporated herein by reference. This method requires passing a composition through a hydrophobic interaction column and measuring the volume of solvent required for its complete elution. The hydrophobic sites on the agent are generally attracted to hydrophobic groups, such as aryl groups, affixed to beads placed within the column. A preferred HIC column material is phenyl-superose (Pharmacia, Sweden), a cross-linked polysaccharide which has been covalently modified to have pendant hydrophobic aryl groups. These pendant groups are similar to the hydrophobic or lipophilic species in the skin layers. Thus, this hydrophobic interaction column approximates, and is a good in vitro model for, an animal's skin layer as a barrier to transport of a polypeptide or protein. […]",
  "key": {"[1]": {"settings": "pH 3.5, 10 mM sodium chloroacetate, TWEEN 20 0"}, "[2]": {"settings": "pH 3.5, 10 mM sodium chloroacetate, TWEEN 20 1.5 mg/mL"}, "[3]": {"settings": "pH 3.5, 10 mM sodium chloroacetate, TWEEN 20 2.66 mM"}, "[4]": {"settings": "pH 3.5, 10 mM sodium chloroacetate, TWEEN 20 5.33 mM"}, "[5]": {"settings": "pH 3.5, 10 mM sodium chloroacetate, TWEEN 20 6.66 mM"}, "[6]": {"settings": "pH 3.5, 10 mM sodium chloroacetate, TWEEN 20 8.88 mM"}, "[7]": {"settings": "pH 9.0, 10 mM sodium borate, TWEEN 20 0"}, "[8]": {"settings": "pH 9.0, 10 mM sodium borate, TWEEN 20 1.5 mg/mL"}, "[9]": {"settings": "pH 9.0, 10 mM sodium borate, TWEEN 20 2.66 mM"}, "[10]": {"settings": "pH 9.0, 10 mM sodium borate, TWEEN 20 6.0 mg/mL"}, "[11]": {"settings": "pH 9.0, 10 mM sodium borate, TWEEN 20 8.88 mM"}},
  "data": [
    {"substance": "Salmon Calcitonin [reference compound]", "values": [
      {"measurement": "HIC Column Retention Time", "setting": "dodecyl sulfobetaine 0, calcitonin 0.076 mM", "value": 9.4, "unit": "min"},
      {"measurement": "HIC Column Retention Time", "setting": "dodecyl sulfobetaine 0.83 mM, calcitonin 0.076 mM", "value": 12.4, "unit": "min"},
      {"measurement": "HIC Column Retention Time", "setting": "dodecyl sulfobetaine 3.23 mM, calcitonin 0.074 mM", "value": 87.1, "unit": "min"},
      {"measurement": "HIC Column Retention Time", "setting": "dodecyl sulfobetaine 6.25 mM, calcitonin 0.072 mM", "value": 64.1, "unit": "min"},
      {"measurement": "HIC Column Retention Time", "setting": "dodecyl sulfobetaine 9.77 mM, calcitonin 0.069 mM", "value": 45.1, "unit": "min"},
      {"measurement": "HIC Column Retention Time", "setting": "dodecyl sulfobetaine 18.4 mM, calcitonin 0.062 mM", "value": 28.8, "unit": "min"},
      {"measurement": "HIC Column Retention Time", "setting": "dodecyl sulfobetaine 26.4 mM, calcitonin 0.056 mM", "value": 24.4, "unit": "min"}
    ]},
    {"substance": "Insulinotropin: the protein insulinotropin", "values": [
      {"measurement": "HIC Retention Time", "setting": "[1]", "value": 57.6, "unit": "min"},
      {"measurement": "HIC Retention Time", "setting": "[2]", "value": 25.6, "unit": "min"},
      {"measurement": "HIC Retention Time", "setting": "[3]", "value": 11.5, "unit": "min"},
      {"measurement": "HIC Retention Time", "setting": "[4]", "value": 6.1, "unit": "min"},
      {"measurement": "HIC Retention Time", "setting": "[5]", "value": 6.0, "unit": "min"},
      {"measurement": "HIC Retention Time", "setting": "[6]", "value": 4.4, "unit": "min"},
      {"measurement": "HIC Retention Time, fractional change (% δ)", "setting": "[1]", "value": 0},
      {"measurement": "HIC Retention Time, fractional change (% δ)", "setting": "[2]", "value": 0.60},
      {"measurement": "HIC Retention Time, fractional change (% δ)", "setting": "[3]", "value": 0.87},
      {"measurement": "HIC Retention Time, fractional change (% δ)", "setting": "[4]", "value": 0.97},
      {"measurement": "HIC Retention Time, fractional change (% δ)", "setting": "[5]", "value": 0.97},
      {"measurement": "HIC Retention Time, fractional change (% δ)", "setting": "[6]", "value": 1.00},
      {"measurement": "HIC Retention Time", "setting": "[7]", "value": 10.1, "unit": "min"},
      {"measurement": "HIC Retention Time", "setting": "[8]", "value": 9.4, "unit": "min"},
      {"measurement": "HIC Retention Time", "setting": "[9]", "value": 6.4, "unit": "min"},
      {"measurement": "HIC Retention Time", "setting": "[10]", "value": 4.8, "unit": "min"},
      {"measurement": "HIC Retention Time", "setting": "[11]", "value": 3.8, "unit": "min"},
      {"measurement": "HIC Retention Time, fractional change (% δ)", "setting": "[7]", "value": 0},
      {"measurement": "HIC Retention Time, fractional change (% δ)", "setting": "[8]", "value": 0.11},
      {"measurement": "HIC Retention Time, fractional change (% δ)", "setting": "[9]", "value": 0.59},
      {"measurement": "HIC Retention Time, fractional change (% δ)", "setting": "[10]", "value": 0.84},
      {"measurement": "HIC Retention Time, fractional change (% δ)", "setting": "[11]", "value": 1.00}
    ]}
  ]
}
